Reference: patent publication US20150259664
Positions count from the first letter of the chain named.

Tests used:
[1] = target: T1, RF1 variant A-18 (N296K/L297R/L298R)
T1 chain: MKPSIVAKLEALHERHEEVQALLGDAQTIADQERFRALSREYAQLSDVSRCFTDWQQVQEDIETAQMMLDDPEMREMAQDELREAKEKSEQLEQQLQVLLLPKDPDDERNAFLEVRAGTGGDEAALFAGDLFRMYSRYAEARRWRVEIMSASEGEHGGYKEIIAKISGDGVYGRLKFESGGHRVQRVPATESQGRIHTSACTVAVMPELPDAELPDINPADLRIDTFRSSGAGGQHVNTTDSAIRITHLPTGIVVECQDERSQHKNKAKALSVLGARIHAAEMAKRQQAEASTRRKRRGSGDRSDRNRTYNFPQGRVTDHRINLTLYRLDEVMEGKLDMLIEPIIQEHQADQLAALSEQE

[2] = target: T2, RF1 variant A-17 (N296K/L297R/L298K)
T2 chain: T1 chain with R298K

[3] = target: Escherichia coli Release Factor 1 (RF1), wild type
[4] = target: RF1 variant A-13 (N296K/L297R)

B1: Escherichia coli Outer Membrane Protein T1 (OmpT1) (protein)
chain: STETLSFTPDNINADISLGTLSGKTKERVYLAEEGGRKVSQLDWKFNNAAIIKGAINWDLMPQISIGAAGWTTLGSRGGNMVDQDWMDSSNPGTWTDESRHPDTQLNYANEFDLNIKGWLLNEPNYRLGLMAGYQESRYSFTARGGSYIYSSEEGFRDDIGSFPNGERAIGYKQRFKMPYIGLTGSYRYEDFELGGTFKYSGWVESSDNDEHYDPGKRITYRSKVKDQNYYSVAVNAGYYVTPNAKVYVEGAWNRVTNKKGNTSLYDHNNNTSDYSKNGAGIENYNFITTAGLKYTF
B1 was tested, and the “cleavage in lysed recombinant strain, 0, 1, 2 and 3 hours (Western blot)” value (“cleavage in lysed recombinant strain” below) [1] was “the modified RF1 protein variants were efficiently cleaved at all time points tested by the cell-free extract, as determined by Western blot analysis (data not shown)”, the “cleavage in lysed recombinant strain” value [2] was “the modified RF1 protein variants were efficiently cleaved at all time points tested by the cell-free extract, as determined by Western blot analysis (data not shown)” and the “cleavage in lysed strain SBJY001, 0, 1, 2 and 3 hours (Western blot)” value [3] was “cleavage of unmodified, wild-type RF1 by strain SBJY001 was not detected over the same time periods”. For the same protein, the “cleavage in lysed recombinant strain” value [4] was “the modified RF1 protein variants were efficiently cleaved at all time points tested by the cell-free extract, as determined by Western blot analysis (data not shown)”.
